In US20230242651A1 (published 2023):

T1: human interleukin-23 receptor (IL23R) (human, UniProt Q5VWK5 24-355, limits assumed)
T1 construct: also called human IL23R
T1 sequence (looked up): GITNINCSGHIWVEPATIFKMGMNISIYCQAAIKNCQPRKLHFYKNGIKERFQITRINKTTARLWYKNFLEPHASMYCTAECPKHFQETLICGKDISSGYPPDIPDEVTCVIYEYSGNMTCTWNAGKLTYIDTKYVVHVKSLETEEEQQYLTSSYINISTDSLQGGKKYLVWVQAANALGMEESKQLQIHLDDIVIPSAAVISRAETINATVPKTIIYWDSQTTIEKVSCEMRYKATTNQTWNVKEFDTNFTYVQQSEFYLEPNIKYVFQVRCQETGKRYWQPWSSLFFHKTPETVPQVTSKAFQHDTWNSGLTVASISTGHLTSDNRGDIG

B1: Vκ2/VH2 consensus λ-capped, human IL23R specific scFv (scFv)
scFv: DIVMTQSPLSLPVTPGEPASISCQASENIYSFLAWYLQKPGQSPQLLIYSASKLAAGVPDRFSGSGSGTDFTLKISRVEAEDVGVYYCQQTNRYSNPDIYNVFGGGTKLTVLGGGGGSGGGGSGGGGSGGGGSQVQLKESGPALVKPTQTLTLTCTFSGIDFNSNYYMCWIRQPPGKALEWLACIYVGSHVNTYYANWAKGRLTISKDTSKNQVVLTMTNMDPVDTATYYCATSGSSVLYFKFWGQGTLVTVSS
notes: scFv VL-linker-VH, made in E. coli; also called Vκ2VH2 capped
B2: Vκ2/VH1A consensus (uncapped), human IL23R specific scFv (scFv)
scFv: DIVMTQSPLSLPVTPGEPASISCQASENIYSFLAWYLQKPGQSPQLLIYSASKLAAGVPDRFSGSGSGTDFTLKISRVEAEDVGVYYCQQTNRYSNPDIYNVFGQGTKVEIKRGGGGSGGGGSGGGGSGGGGSQVQLVQSGAEVKKPGSSVKVSCKASGIDFNSNYYMCWVRQAPGQGLEWMGCIYVGSHVNTYYANWAKGRVTITADESTSTAYMELSSLRSEDTAVYYCATSGSSVLYFKFWGQGTLVTVSS
notes: scFv VL-linker-VH, made in E. coli; Vκ framework IV (uncapped, full consensus); also called Vκ2VH1A uncapped
B3: Vκ2/VH1B consensus λ-capped, human IL23R specific scFv (scFv)
scFv: DIVMTQSPLSLPVTPGEPASISCQASENIYSFLAWYLQKPGQSPQLLIYSASKLAAGVPDRFSGSGSGTDFTLKISRVEAEDVGVYYCQQTNRYSNPDIYNVFGGGTKLTVLGGGGGSGGGGSGGGGSGGGGSQVQLVQSGAEVKKPGASVKVSCKASGIDFNSNYYMCWVRQAPGQGLEWMGCIYVGSHVNTYYANWAKGRVTMTRDTSISTAYMELSSLRSEDTAVYYCATSGSSVLYFKFWGQGTLVTVSS
notes: scFv VL-linker-VH, made in E. coli; also called Vκ2VH1B capped
B4: Vκ2/VH4 consensus (uncapped), human IL23R specific scFv (scFv)
scFv: DIVMTQSPLSLPVTPGEPASISCQASENIYSFLAWYLQKPGQSPQLLIYSASKLAAGVPDRFSGSGSGTDFTLKISRVEAEDVGVYYCQQTNRYSNPDIYNVFGQGTKVEIKRGGGGSGGGGSGGGGSGGGGSQVQLQESGPGLVKPSETLSLTCTVSGIDFNSNYYMCWIRQPPGKGLEWIGCIYVGSHVNTYYANWAKGRVTISVDTSKNQFSLKLSSVTAADTAVYYCATSGSSVLYFKFWGQGTLVTVSS
notes: scFv VL-linker-VH, made in E. coli; Vκ framework IV (uncapped, full consensus); also called Vκ2VH4 uncapped
B5: Vκ3/VH5 consensus (uncapped), human IL23R specific scFv (scFv)
scFv: DIVLTQSPATLSLSPGERATLSCQASENIYSFLAWYQQKPGQAPRLLIYSASKLAAGVPARFSGSGSGTDFTLTISSLEPEDFAVYYCQQTNRYSNPDIYNVFGQGTKVEIKRGGGGSGGGGSGGGGSGGGGSEVQLVQSGAEVKKPGESLKISCKGSGIDFNSNYYMCWVRQMPGKGLEWMGCIYVGSHVNTYYANWAKGQVTISADKSISTAYLQWSSLKASDTAMYYCATSGSSVLYFKFWGQGTLVTVSS
notes: scFv VL-linker-VH, made in E. coli; Vκ framework IV (uncapped, full consensus); also called Vκ3VH5 uncapped
B6: Vκ1/VH5 consensus (uncapped), human IL23R specific scFv (scFv)
scFv: DIQMTQSPSSLSASVGDRVTITCQASENIYSFLAWYQQKPGKAPKLLIYSASKLAAGVPSRFSGSGSGTDFTLTISSLQPEDFATYYCQQTNRYSNPDIYNVFGQGTKVEIKRGGGGSGGGGSGGGGSGGGGSEVQLVQSGAEVKKPGESLKISCKGSGIDFNSNYYMCWVRQMPGKGLEWMGCIYVGSHVNTYYANWAKGQVTISADKSISTAYLQWSSLKASDTAMYYCATSGSSVLYFKFWGQGTLVTVSS
notes: scFv VL-linker-VH, made in E. coli; Vκ framework IV (uncapped, full consensus); also called Vκ1VH5 uncapped
B7: Vκ3/VH6 consensus λ-capped, human IL23R specific scFv (scFv)
scFv: DIVLTQSPATLSLSPGERATLSCQASENIYSFLAWYQQKPGQAPRLLIYSASKLAAGVPARFSGSGSGTDFTLTISSLEPEDFAVYYCQQTNRYSNPDIYNVFGGGTKLTVLGGGGGSGGGGSGGGGSGGGGSQVQLQQSGPGLVKPSQTLSLTCAISGIDFNSNYYMCWIRQSPGRGLEWLGCIYVGSHVNTYYANWAKGRITINPDTSKNQFSLQLNSVTPEDTAVYYCATSGSSVLYFKFWGQGTLVTVSS
notes: scFv VL-linker-VH, made in E. coli; also called Vκ3VH6 capped
B8: Vκ2/VH3 consensus (uncapped), human IL23R specific scFv (scFv)
scFv: DIVMTQSPLSLPVTPGEPASISCQASENIYSFLAWYLQKPGQSPQLLIYSASKLAAGVPDRFSGSGSGTDFTLKISRVEAEDVGVYYCQQTNRYSNPDIYNVFGQGTKVEIKRGGGGSGGGGSGGGGSGGGGSEVQLVESGGGLVQPGGSLRLSCAASGIDFNSNYYMCWVRQAPGKGLEWVSCIYVGSHVNTYYANWAKGRFTISRDNSKNTLYLQMNSLRAEDTAVYYCATSGSSVLYFKFWGQGTLVTVSS
notes: scFv VL-linker-VH, made in E. coli; Vκ framework IV (uncapped, full consensus); also called Vκ2VH3 uncapped

target: T1, human interleukin-23 receptor (IL23R); assay: SPR, scFv
In short: (§1)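 Binding to human IL23R was assessed by surface plasmon resonance, with values given as rate constants and dissociation constant or as a λ-capped over uncapped dissociation-constant ratio. The binders were humanized rabbit variable domains in single-chain variable fragment format on consensus germline framework pairs, with or without a λ-cap. Each was produced in E. coli as inclusion bodies and refolded after solubilization.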

Row | Binder | Kd [nM] | koff [s⁻¹] | kon [M⁻¹ s⁻¹]
1 | B1 | 0.0741 | 0.000102 | 1.38e+06
2 | B2 | 0.222 | 0.000279 | 1.26e+06
3 | B3 | 0.143 | 0.000326 | 2.29e+06
4 | B4 | 0.125 | 0.000157 | 1.26e+06
5 | B5 | 0.525 | 0.000904 | 1.72e+06
6 | B6 | 0.239 | 0.000538 | 2.25e+06
7 | B7 | 0.394 | 0.000563 | 1.43e+06
8 | B8 | 0.0236 | 4.3e-05 | 1.82e+06

target: T1, human interleukin-23 receptor (IL23R); assay: SPR, scFv (summary table)
In short: as §1

Row | Binder | Kd [nM]
9 | B1 | 0.0741
10 | B2 | 0.222
11 | B3 | 0.143
12 | B4 | 0.125
13 | B5 | 0.525
14 | B6 | 0.239
15 | B7 | 0.394
16 | B8 | 0.0236
